# Measurements from IntAct's records for PubMed 18923430.
# Target: dnjc3_mouse Dnajc3 (UniProt Q91YW3)
# Sequence (Q91YW3 whole entry): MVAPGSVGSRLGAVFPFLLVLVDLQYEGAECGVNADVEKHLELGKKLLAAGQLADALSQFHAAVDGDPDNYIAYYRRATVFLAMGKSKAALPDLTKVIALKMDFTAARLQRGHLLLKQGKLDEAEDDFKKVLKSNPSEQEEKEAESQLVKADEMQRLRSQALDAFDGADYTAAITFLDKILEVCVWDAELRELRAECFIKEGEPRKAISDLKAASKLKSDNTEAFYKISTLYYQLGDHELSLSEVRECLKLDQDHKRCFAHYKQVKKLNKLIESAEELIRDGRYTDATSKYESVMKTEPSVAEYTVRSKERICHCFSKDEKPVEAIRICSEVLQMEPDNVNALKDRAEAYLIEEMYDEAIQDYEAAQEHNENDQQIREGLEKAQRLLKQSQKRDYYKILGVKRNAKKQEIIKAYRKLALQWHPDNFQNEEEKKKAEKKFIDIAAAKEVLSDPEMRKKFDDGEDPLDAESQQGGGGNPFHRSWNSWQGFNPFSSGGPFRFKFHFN
substance,measurement,value
"Endoplasmic reticulum chaperone BiP (Homo sapiens), P11021 E201G",effect of a mutation on the interaction,disrupting interaction
